The data set has as its system CC(=O)N[C@H]1[C@@H](OP(=O)(O)OP(=O)(O)OC[C@H]2O[C@@H](n3ccc(=O)[nH]c3=O)[C@H](O)[C@@H]2O)O[C@H](C)[C@H](O)[C@@H]1O. Description: purified protein. The following applies: Mg2+.

Take “CapM (Staphylococcus aureus subsp. aureus USA300)”: the Km is 2,309 ± 311.8 µM.

Source of the values: article PMC6441080, “Coordination of capsule assembly and cell wall biosynthesis in Staphylococcus aureus” (Nature Communications, 2019).
